Patent US9260500B2, “Peptide and use thereof” (Takeda Pharmaceutical Company Limited, priority 2009, dated 2016)
Non-standard residues stand in square brackets, D forms with d. *: point of attachment. X8 = (2-Hydroxy-1-(hydroxymethyl)ethyl)carbamoyl, O=C(NC(CO)CO)*; (2-amino-2-oxoethyl)carbamoyl = NC(=O)CNC(=O)*; (2-Carboxyethyl)carbamoyl = O=C(O)CCNC(=O)*; (2-carboxyethyl)carbamoyl = O=C(O)CCNC(=O)*; carbamoylmethylcarbamoyl = NC(=O)CNC(=O)*; Imidazole4carbonyl = O=C(c1cnc[nH]1)*; tBuAla = CC(C)(C)C[C@H](N)C(=O)O; 4Pal = N[C@@H](Cc1ccncc1)C(=O)O; dHyp = O=C(O)[C@H]1C[C@H](O)CN1; Cha = N[C@@H](CC1CCCCC1)C(=O)O; Isonicotinoyl = O=C(c1ccncc1)*; dIva = CC[C@@](C)(N)C(=O)O; Iva = CC[C@](C)(N)C(=O)O; Aib = CC(C)(N)C(=O)O

Experiments:
[1] = molecular target: T1, human Y2 receptor (Homo sapiens, UniProt P49146); assay: Receptor Binding Assay (RBA) for Human Y2, [125I]-PYY displacement on hY2R/CHO membrane fraction; conditions: IC50 of test compound/IC50 of PYY(3-36) (PYY(3-36) taken as 1)
T1 construct: expressed in transfected cells; membrane fraction
T1 sequence (P49146 1-381): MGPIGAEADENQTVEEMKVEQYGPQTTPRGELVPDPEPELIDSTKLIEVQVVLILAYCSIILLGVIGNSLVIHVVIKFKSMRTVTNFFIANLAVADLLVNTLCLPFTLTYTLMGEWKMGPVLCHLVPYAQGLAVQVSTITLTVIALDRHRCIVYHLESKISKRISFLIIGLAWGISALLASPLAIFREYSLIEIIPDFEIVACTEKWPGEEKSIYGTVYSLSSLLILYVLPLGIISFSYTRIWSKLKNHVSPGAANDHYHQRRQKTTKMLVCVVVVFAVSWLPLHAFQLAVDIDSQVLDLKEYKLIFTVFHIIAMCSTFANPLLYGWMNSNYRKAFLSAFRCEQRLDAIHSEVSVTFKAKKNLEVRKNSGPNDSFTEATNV
How it was run: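 Read-out is [125I]-PYY displacement from membranes of CHO/dhfr− cells stably transfected with human Y2R. Membranes were obtained by disrupting cells in a buffer of 10 mM NaHCO3, 5 mM EDTA and protease inhibitors.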

[2] = molecular target: T1, human Y2 receptor; assay: Human Y2 Receptor G Protein Binding Assay (GBA), [35S]GTPγS; assay type: biochemical; conditions: EC50 of test compound/EC50 of PYY(3-36) (PYY3-36 taken as 1), hY2R/CHO membrane fraction
How it was run: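 Agonism measured as [35S]GTPγS binding, read by GF/C filtration and scintillation counting after 120 min at room temperature, using human Y2 membranes at 1 μg protein/mL in pH 7.4 Tris/MgCl2/NaCl/GDP buffer. Compound serially diluted 100 μM–1 nM; EC50 normalized to PYY(3-36) (ratio = compound/PYY).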

[3] = test system: male C57EL/6J mice; assay: 3-Days Continuous Subcutaneous Administration Test-1 (food intake suppressing activity); assay type: in vivo, mouse; conditions: 0.03 mg/kg/day, subcutaneous Alzet pump, food consumption over 3 days; relative to food intake suppression rate for PYY(3-36) (1 mg/kg/day) taken as 100%
How it was run: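 Male […] mice, 12-13 weeks, received compound at 0.03 mg/kg/day by subcutaneous osmotic pump (50% DMSO vehicle), housed singly with free food access. Food consumed over 3 days measured; suppression expressed relative to PYY(3-36) (1 mg/kg/day) set as 100%.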

(2-Carboxyethyl)carbamoyl-[D-Pro24, Iva25, Pya(4)26, Cha27,36, Aib28,31, Lys30]-PYY(23-36) ({(2-carboxyethyl)carbamoyl}-S[dP][Iva][4Pal][Cha][Aib]NK[Aib]TRQR[Cha]-NH2; SMILES CC[C@](C)(NC(=O)[C@H]1CCCN1C(=O)[C@H](CO)NC(=O)NCCC(=O)O)C(=O)N[C@@H](Cc1ccncc1)C(=O)N[C@@H](CC1CCCCC1)C(=O)NC(C)(C)C(=O)N[C@@H](CC(N)=O)C(=O)N[C@@H](CCCCN)C(=O)NC(C)(C)C(=O)N[C@H](C(=O)N[C@@H](CCCNC(=N)N)C(=O)N[C@@H](CCC(N)=O)C(=O)N[C@@H](CCCNC(=N)N)C(=O)N[C@@H](CC1CCCCC1)C(N)=O)[C@@H](C)O) [compound No. 341]
RBA IC50 Ratio [1]: 3.2 | GBA EC50 Ratio [2]: 2.4 | food intake suppression rate (%) [3]: 35%

Carbamoylmethylcarbamoyl-[D-Pro24, Iva25, Pya(4)26, Cha27,36, Aib28,31, Lys30]-PYY(23-36) (carbamoylmethylcarbamoyl-S[dP][Iva][4Pal][Cha][Aib]NK[Aib]TRQR[Cha]-NH2; SMILES CC[C@](C)(NC(=O)[C@H]1CCCN1C(=O)[C@H](CO)NC(=O)NCC(N)=O)C(=O)N[C@@H](Cc1ccncc1)C(=O)N[C@@H](CC1CCCCC1)C(=O)NC(C)(C)C(=O)N[C@@H](CC(N)=O)C(=O)N[C@@H](CCCCN)C(=O)NC(C)(C)C(=O)N[C@H](C(=O)N[C@@H](CCCNC(=N)N)C(=O)N[C@@H](CCC(N)=O)C(=O)N[C@@H](CCCNC(=N)N)C(=O)N[C@@H](CC1CCCCC1)C(N)=O)[C@@H](C)O) [compound No. 331]
RBA IC50 Ratio [1]: 1.7 | GBA EC50 Ratio [2]: 1.7 | food intake suppression rate (%) [3]: 35%

2-Methylbutanoyl-[D-Pro24, Pya(4)26, Cha27,36, Aib28,31, Lys30]-PYY(23-36) ({2‑methylbutanoyl}-S[dP]R[4Pal][Cha][Aib]NK[Aib]TRQR[Cha]-NH2) [compound No. 276]
RBA IC50 Ratio [1]: 0.54 | GBA EC50 Ratio [2]: 0.78 | food intake suppression rate (%) [3]: 16%

[2-Hydroxy-1-(hydroxymethyl)ethyl]carbamoyl-[D-Pro24, Iva25, Pya(4)26, Cha27,36, Aib28,31, Lys30]-PYY(23-36) (X8-S[dP][Iva][4Pal][Cha][Aib]NK[Aib]TRQR[Cha]-NH2; SMILES CC[C@](C)(NC(=O)[C@H]1CCCN1C(=O)[C@H](CO)NC(=O)NC(CO)CO)C(=O)N[C@@H](Cc1ccncc1)C(=O)N[C@@H](CC1CCCCC1)C(=O)NC(C)(C)C(=O)N[C@@H](CC(N)=O)C(=O)N[C@@H](CCCCN)C(=O)NC(C)(C)C(=O)N[C@H](C(=O)N[C@@H](CCCNC(=N)N)C(=O)N[C@@H](CCC(N)=O)C(=O)N[C@@H](CCCNC(=N)N)C(=O)N[C@@H](CC1CCCCC1)C(N)=O)[C@@H](C)O) [compound No. 339]
RBA IC50 Ratio [1]: 1.76 | GBA EC50 Ratio [2]: 2.0 | food intake suppression rate (%) [3]: 51%

(2-amino-2-oxoethyl)carbamoyl-[D-Pro24, Pya(4)26, Cha27,36, Aib28,31, Lys30]-PYY(23-36) ({(2-amino-2-oxoethyl)carbamoyl}-S[dP]R[4Pal][Cha][Aib]NK[Aib]TRQR[Cha]-NH2; SMILES C[C@@H](O)[C@H](NC(=O)C(C)(C)NC(=O)[C@H](CCCCN)NC(=O)[C@H](CC(N)=O)NC(=O)C(C)(C)NC(=O)[C@H](CC1CCCCC1)NC(=O)[C@H](Cc1ccncc1)NC(=O)[C@H](CCCNC(=N)N)NC(=O)[C@H]1CCCN1C(=O)[C@H](CO)NC(=O)NCC(N)=O)C(=O)N[C@@H](CCCNC(=N)N)C(=O)N[C@@H](CCC(N)=O)C(=O)N[C@@H](CCCNC(=N)N)C(=O)N[C@@H](CC1CCCCC1)C(N)=O) [compound No. 292]
RBA IC50 Ratio [1]: 1.2 | GBA EC50 Ratio [2]: 0.74 | food intake suppression rate (%) [3]: 36%

4-Pyridinecarbonyl-[D-Hyp24, Iva25,28, Pya(4)26, Cha27,36, Lys30, Aib31]-PYY (23-36) (Isonicotinoyl-S[dHyp][Iva][4Pal][Cha][Iva]NK[Aib]TRQR[Cha]-NH2; SMILES CC[C@](C)(NC(=O)[C@H](CC1CCCCC1)NC(=O)[C@H](Cc1ccncc1)NC(=O)[C@](C)(CC)NC(=O)[C@H]1C[C@H](O)CN1C(=O)[C@H](CO)NC(=O)c1ccncc1)C(=O)N[C@@H](CC(N)=O)C(=O)N[C@@H](CCCCN)C(=O)NC(C)(C)C(=O)N[C@H](C(=O)N[C@@H](CCCNC(=N)N)C(=O)N[C@@H](CCC(N)=O)C(=O)N[C@@H](CCCNC(=N)N)C(=O)N[C@@H](CC1CCCCC1)C(N)=O)[C@@H](C)O) [compound No. 334]
RBA IC50 Ratio [1]: 1.3 | GBA EC50 Ratio [2]: 1.6 | food intake suppression rate (%) [3]: 14%

4-Imidazolecarbonyl-[Glu23, D-Pro24, Pya(4)26, Cha27,36, Aib28,31, Lys30]-PYY(23-36) (Imidazole4carbonyl-E[dP]R[4Pal][Cha][Aib]NK[Aib]TRQR[Cha]-NH2; SMILES C[C@@H](O)[C@H](NC(=O)C(C)(C)NC(=O)[C@H](CCCCN)NC(=O)[C@H](CC(N)=O)NC(=O)C(C)(C)NC(=O)[C@H](CC1CCCCC1)NC(=O)[C@H](Cc1ccncc1)NC(=O)[C@H](CCCNC(=N)N)NC(=O)[C@H]1CCCN1C(=O)[C@H](CCC(=O)O)NC(=O)c1cnc[nH]1)C(=O)N[C@@H](CCCNC(=N)N)C(=O)N[C@@H](CCC(N)=O)C(=O)N[C@@H](CCCNC(=N)N)C(=O)N[C@@H](CC1CCCCC1)C(N)=O) [compound No. 216]
RBA IC50 Ratio [1]: 1.3 | GBA EC50 Ratio [2]: 1.3 | food intake suppression rate (%) [3]: 36%

Ac-[D-Pro24, Iva25, Pya(4)26, Cha27,36, Leu(Me)28, Lys30, Aib31]-PYY(23-36) [compound No. 295]
RBA IC50 Ratio [1]: 0.76 | GBA EC50 Ratio [2]: 1.2 | food intake suppression rate (%) [3]: 52%

4-Pyridinecarbonyl-[D-Hyp24, Iva25, Pya(4)26, Cha27,36, Leu(Me)28, Lys30, Aib31]-PYY(23-36) (Isonicotinoyl-S[dHyp][Iva][4Pal][Cha][tBuAla]NK[Aib]TRQR[Cha]-NH2; SMILES CC[C@](C)(NC(=O)[C@H]1C[C@H](O)CN1C(=O)[C@H](CO)NC(=O)c1ccncc1)C(=O)N[C@@H](Cc1ccncc1)C(=O)N[C@@H](CC1CCCCC1)C(=O)N[C@@H](CC(C)(C)C)C(=O)N[C@@H](CC(N)=O)C(=O)N[C@@H](CCCCN)C(=O)NC(C)(C)C(=O)N[C@H](C(=O)N[C@@H](CCCNC(=N)N)C(=O)N[C@@H](CCC(N)=O)C(=O)N[C@@H](CCCNC(=N)N)C(=O)N[C@@H](CC1CCCCC1)C(N)=O)[C@@H](C)O) [compound No. 333]
RBA IC50 Ratio [1]: 0.93 | GBA EC50 Ratio [2]: 1.6 | food intake suppression rate (%) [3]: 28%

Ac-[D-Pro24, Pya(4)26, Cha27,36, Iva28, Lys30, D-Iva31]-PYY(23-36) (Ac-S[dP]R[4Pal][Cha][Iva]NK[dIva]TRQR[Cha]-NH2; SMILES CC[C@@](C)(NC(=O)[C@H](CCCCN)NC(=O)[C@H](CC(N)=O)NC(=O)[C@](C)(CC)NC(=O)[C@H](CC1CCCCC1)NC(=O)[C@H](Cc1ccncc1)NC(=O)[C@H](CCCNC(=N)N)NC(=O)[C@H]1CCCN1C(=O)[C@H](CO)NC(C)=O)C(=O)N[C@H](C(=O)N[C@@H](CCCNC(=N)N)C(=O)N[C@@H](CCC(N)=O)C(=O)N[C@@H](CCCNC(=N)N)C(=O)N[C@@H](CC1CCCCC1)C(N)=O)[C@@H](C)O) [compound No. 249]
RBA IC50 Ratio [1]: 0.36 | GBA EC50 Ratio [2]: 0.67 | food intake suppression rate (%) [3]: 39%

(2-Carboxyethyl)carbamoyl-[D-Pro24, Pya(4)26, Cha27,36, Aib28,31, Lys30]-PYY(23-36) ({(2-Carboxyethyl)carbamoyl}-S[dP]R[4Pal][Cha][Aib]NK[Aib]TRQR[Cha]-NH2; SMILES C[C@@H](O)[C@H](NC(=O)C(C)(C)NC(=O)[C@H](CCCCN)NC(=O)[C@H](CC(N)=O)NC(=O)C(C)(C)NC(=O)[C@H](CC1CCCCC1)NC(=O)[C@H](Cc1ccncc1)NC(=O)[C@H](CCCNC(=N)N)NC(=O)[C@H]1CCCN1C(=O)[C@H](CO)NC(=O)NCCC(=O)O)C(=O)N[C@@H](CCCNC(=N)N)C(=O)N[C@@H](CCC(N)=O)C(=O)N[C@@H](CCCNC(=N)N)C(=O)N[C@@H](CC1CCCCC1)C(N)=O) [compound No. 326]
RBA IC50 Ratio [1]: 1.3 | GBA EC50 Ratio [2]: 0.94 | food intake suppression rate (%) [3]: 57%
